B1: DA20: humanized or deimmunized variant of parental clone D0; CDRs SEQ ID NO 1, 2, 7 / 4, 10, 14 (antibody, V domains shown)
VH: EVQLVESGGGLVQPGGSLRLSCAASGFTFSSFNMLWVRQAPGKGLEWVAGIGKSDRYTGYGSAVKGRFTISRDDSKSTVYLQMNSLRAEDTAVYYCVRDAGSGCGSGGWTGACIDTWGQGTLVTVSS
VL: DIQMTQSPSSLSASVGDRVTITCSGGDSYAGSYYYGWYQQKPGKAPKTLIYNNNNRPSGVPSRFSGSRSGTDFTLTISSLQPEDFATYYCGSRDSAGMGAFGQGTKVEIK
B2: DA1: humanized or deimmunized variant of parental clone D0; CDRs SEQ ID NO 1, 2, 7 / 4, 10, 13 (antibody, V domains shown)
VH: EVQLVESGGGLVQPGGSLRLSCAASGFTFSSFNMLWVRQAPGKGLEWVAGIGKSDRYTGYGSAVKGRFTISRDDSKSTVYLQMNSLRAEDTAVYYCVRDAGSGCGSGGWTGACIDTWGQGTLVTVSS
VL: DIQMTQSPSSLSASVGDRVTITCSGGDSYAGSYYYGWYQQKPGKAPKTLIYNNNNRPSGVPSRFSGSTSGTDFTLTISSLQPEDFATYYCGSRDSSYVGIFGQGTKVEIK
B3: DA2: humanized or deimmunized variant of parental clone D0; CDRs SEQ ID NO 1, 2, 7 / 4, 10, 13 (antibody, V domains shown)
VH: EVQLVESGGGLVQPGGSLRLSCAASGFTFSSFNMLWVRQAPGKGLEWVAGIGKSDRYTGYGSAVKGRFTISRDDSKSTVYLQMNSLRAEDTAVYYCVRDAGSGCGSGGWTGACIDTWGQGTLVTVSS
VL: DIQMTQSPSSLSASVGDRVTITCSGGDSYAGSYYYGWYQQKPGKAPKTLIYNNNNRPSGVPSRFSGSRSGTDFTLTISSLQPEDFATYYCGSRDSSYVGIFGQGTKVEIK
B4: DA3: humanized or deimmunized variant of parental clone D0; CDRs SEQ ID NO 1, 2, 7 / 4, 10, 13 (antibody, V domains shown)
VH: EVQLVESGGGLVQPGGSLRLSCAASGFTFSSFNMLWVRQAPGKGLEWVAGIGKSDRYTGYGSAVKGRFTISRDTSKSTVYLQMNSLRAEDTAVYYCVRDAGSGCGSGGWTGACIDTWGQGTLVTVSS
VL: DIQMTQSPSSLSASVGDRVTITCSGGDSYAGSYYYGWYQQKPGKAPKTLIYNNNNRPSGVPSRFSGSTSGTDFTLTISSLQPEDFATYYCGSRDSSYVGIFGQGTKVEIK
B5: DA4: humanized or deimmunized variant of parental clone D0; CDRs SEQ ID NO 1, 2, 7 / 4, 10, 13 (antibody, V domains shown)
VH: EVQLVESGGGLVQPGGSLRLSCAASGFTFSSFNMLWVRQAPGKGLEWVAGIGKSDRYTGYGSAVKGRFTISRDDSKNTVYLQMNSLRAEDTAVYYCVRDAGSGCGSGGWTGACIDTWGQGTLVTVSS
VL: DIQMTQSPSSLSASVGDRVTITCSGGDSYAGSYYYGWYQQKPGKAPKTLIYNNNNRPSGVPSRFSGSTSGTDFTLTISSLQPEDFATYYCGSRDSSYVGIFGQGTKVEIK
B6: DA21: humanized or deimmunized variant of parental clone D0; CDRs SEQ ID NO 1, 2, 7 / 4, 10, 16 (antibody, V domains shown)
VH: EVQLVESGGGLVQPGGSLRLSCAASGFTFSSFNMLWVRQAPGKGLEWVAGIGKSDRYTGYGSAVKGRFTISRDDSKSTVYLQMNSLRAEDTAVYYCVRDAGSGCGSGGWTGACIDTWGQGTLVTVSS
VL: DIQMTQSPSSLSASVGDRVTITCSGGDSYAGSYYYGWYQQKPGKAPKTLIYNNNNRPSGVPSRFSGSRSGTDFTLTISSLQPEDFATYYCGSRDSSGAGGFGQGTKVEIK
B7: DA28: humanized or deimmunized variant of parental clone D0; CDRs SEQ ID NO 1, 2, 7 / 4, 10, 13 (antibody, V domains shown)
VH: AVTLDESGGGLQTPGGGLSLVCKGSGFTFSSFNMLWVRQAPGKGLEWVAGIGKSDRYTGYGSAVKGRATISRDDGQSTARLQLNNLRAEDTGTYYCVKDAGSGCGSGGWTGACIDTWGHGTEVIVSS
VL: LTQPSSVSANLGGTVEITCSGGDSYAGSYYYGWYQQKAPGSAPVTVIYNNNNRPSNIPSRFSGSTSGSTATLTITGVQAEDEAVYFCGSRDSSYVGIFGAGTTLTVL
B8: DA35: humanized or deimmunized variant of parental clone D0; CDRs SEQ ID NO 1, 2, 7 / 4, 10, 13 (antibody, V domains shown)
VH: AVTLDESGGGLQTPGGGLSLVCKGSGFTFSSFNMLWVRQAPGKGLEWVAGIGKSDRYTGYGSAVKGRATISRDDGQSTARLQMNSLRAEDTAVYYCVKDAGSGCGSGGWTGACIDTWGHGTEVIVSS
VL: LTQPSSVSANLGGTVEITCSGGDSYAGSYYYGWYQQKAPGSAPVTVIYNNNNRPSNIPSRFSGSTSGSTATLTITGVQAEDEATYFCGSRDSSYVGIFGAGTTLTVL
B9: DA34: humanized or deimmunized variant of parental clone D0; CDRs SEQ ID NO 1, 2, 7 / 4, 10, 13 (antibody, V domains shown)
VH: AVTLDESGGGLQTPGGGLSLVCKGSGFTFSSFNMLWVRQAPGKGLEWVAGIGKSDRYTGYGSAVKGRATISRDDGQSTAYLQMNSLRAEDTAVYYCVKDAGSGCGSGGWTGACIDTWGHGTEVIVSS
VL: LTQPSSVSANLGGTVEITCSGGDSYAGSYYYGWYQQKAPGSAPVTVIYNNNNRPSNIPSRFSGSTSGSTATLTITGVQAEDEATYYCGSRDSSYVGIFGAGTTLTVL
B10: DA30: humanized or deimmunized variant of parental clone D0; CDRs SEQ ID NO 1, 2, 7 / 4, 10, 13 (antibody, V domains shown)
VH: AVTLDESGGGLQTPGGGLSLVCKGSGFTFSSFNMLWVRQAPGKGLEWVAGIGKSDRYTGYGSAVKGRATISRDDGQSTAYLQMNSLRAEDTGTYYCVKDAGSGCGSGGWTGACIDTWGHGTEVIVSS
VL: LTQPSSVSANLGGTVEITCSGGDSYAGSYYYGWYQQKAPGSAPVTVIYNNNNRPSNIPSRFSGSTSGSTATLTITGVQAEDEATYYCGSRDSSYVGIFGAGTTLTVL
B11: DA33: humanized or deimmunized variant of parental clone D0; CDRs SEQ ID NO 1, 2, 7 / 4, 10, 13 (antibody, V domains shown)
VH: AVTLDESGGGLQTPGGGLSLVCKGSGFTFSSFNMLWVRQAPGKGLEWVAGIGKSDRYTGYGSAVKGRATISRDDGQSTARLQLNNLRAEDTAVYYCVKDAGSGCGSGGWTGACIDTWGHGTEVIVSS
VL: LTQPSSVSANLGGTVEITCSGGDSYAGSYYYGWYQQKAPGSAPVTVIYNNNNRPSNIPSRFSGSTSGSTATLTITGVQAEDEATYFCGSRDSSYVGIFGAGTTLTVL
B12: DA31: humanized or deimmunized variant of parental clone D0; CDRs SEQ ID NO 1, 2, 7 / 4, 10, 13 (antibody, V domains shown)
VH: AVTLDESGGGLQTPGGGLSLVCKGSGFTFSSFNMLWVRQAPGKGLEWVAGIGKSDRYTGYGSAVKGRATISRDDGQSTARLQMNSLRAEDTGTYYCVKDAGSGCGSGGWTGACIDTWGHGTEVIVSS
VL: LTQPSSVSANLGGTVEITCSGGDSYAGSYYYGWYQQKAPGSAPVTVIYNNNNRPSNIPSRFSGSTSGSTATLTITGVQAEDEATYFCGSRDSSYVGIFGAGTTLTVL
B13: DA32: humanized or deimmunized variant of parental clone D0; CDRs SEQ ID NO 1, 2, 7 / 4, 10, 13 (antibody, V domains shown)
VH: AVTLDESGGGLQTPGGGLSLVCKGSGFTFSSFNMLWVRQAPGKGLEWVAGIGKSDRYTGYGSAVKGRATISRDDGQSTVRLQLNNLRAEDTAVYYCVKDAGSGCGSGGWTGACIDTWGHGTEVIVSS
VL: LTQPSSVSANLGGTVEITCSGGDSYAGSYYYGWYQQKAPGSAPVTVIYNNNNRPSNIPSRFSGSTSGSTATLTITGVQAEDEAVYFCGSRDSSYVGIFGAGTTLTVL

Key:
Human DR5 [1] = target: T1, Human DR5 (Homo sapiens, UniProt O14763); assay: TRAIL competitive enzyme-linked immunosorbent assay; type: binding; settings: 0.01-400 nM of TRAIL protein, absorbance at 405 nm
Experimental: In order to examine antigen-binding characteristics of the antibodies selected in Example 3, a TRAIL competitive enzyme-linked immunosorbent assay was conducted. ELISA plates were coated with 0.1 μg/ml human DR5 (R&D systems, U.S.A.) at 4° C. Thereafter, the plates were incubated with 0.01 nM-1440 nM of antibodies (D0, DA20, DA21, DA21, DA22, and DA23) together with 0.01-400 nM of TRAIL protein for 2 hours. After the plates were washed three times with PBST (0.1% bovine serum albumin and Tween-20 in PBS), HRP (horse radish peroxidase)-conjugated anti-human immunoglobulin Fc was added to each well and incubated for 1 hour. After three washes with PBST, color development was performed for 20 min with ABTS (Thermo, U.S.A.). When the color development reached to a certain level, the reaction was terminated with 1 N sulfuric acid. Absorbance at 405 nm was measured using a spectrophotometer (Molecular Device, U.S.A.) and is depicted in FIGS. 8a and 8b. The antibody AP disclosed in Example (7-1) was used as a control.

Human DR5 [2] = target: T1, Human DR5; assay: Binding affinity of antibody to human DR5 (BIAcore, CM5 chip); settings: for Ka(1/Ms) / Ka: association rate, Human DR5, 1:1 Langmuir binding model; for Kd: equilibrium dissociation constant, Human DR5
Experimental: In order to measure affinity, human DR5 was coupled to carboxylated dextran biosensor chips (CM5, GE) according to the manufacturer's instruction. Association and dissociation rates were assessed by injecting IgG proteins that were 2-fold serially diluted to 5 nM, 2.5 nM, 1.25 nM, 0.625 nM, 0.313 nM, and 0.156 nM.
Association and dissociation rates were depicted in association and dissociation sensorgrams and calculated using a simple 1:1 Langmuir binding model (BIAcore X100 Evaluation Software, ver. 2.0). The equilibrium dissociation constants (KD), which is the ratio of dissociation constant (Kd) to association constant (Ka), were confirmed to be in the sub-nanomolar range. Measurements of the binding of antibody D0 and DA1 to DA35 of the present disclosure to DR5 are given in Table 11 below (antibody names are given as the names of the clones from which the antibodies were derived). A representative sensorgram for D0 is depicted in FIG. 1.

Row | Molecule | antigen binding in the presence of TRAIL (Human DR5 [1]) | Ka(1/Ms) (Human DR5 [2]) | Kd (Human DR5 [2]) [pM] | Ka (Human DR5 [2]) [M⁻¹ s⁻¹]
1 | B1 | maintained a certain level of antigen binding irrespective of TRAIL concentrations | 1.00 × 10^06 1/Ms | 12 | –
2 | B2 | – | – | – | 4.9e+06
3 | B3 | – | – | – | 1.9e+06
4 | B4 | – | – | – | 4.9e+06
5 | B5 | – | – | – | 1.2e+06
6 | B6 | maintained a certain level of antigen binding irrespective of TRAIL concentrations | 1.11 × 10^06 1/Ms | 6.43 | –
7 | B7 | – | 1.16 × 10^06 1/Ms | 3.89 | –
8 | B8 | – | 1.13 × 10^06 1/Ms | 80.1 | –
9 | B9 | – | 1.00 × 10^06 1/Ms | 94.2 | –
10 | B10 | – | 1.03 × 10^06 1/Ms | 77.4 | –
11 | B11 | – | 1.24 × 10^06 1/Ms | 78.8 | –
12 | B12 | – | 1.24 × 10^06 1/Ms | 70.6 | –
13 | B13 | – | 1.14 × 10^06 1/Ms | 75.1 | –
